Results published in patent US20260234211A1, “POLYPEPTIDE HAVING MODIFIED STRUCTURE AND USE THEREOF” (Guangdong Raynovent Biotech Co., Ltd., priority 2023, published 2026).

Assays:
Assay in all cases: cell-based or functional assay
GLP-1 receptor (GLP-1R) = biological target: GLP-1 receptor (GLP-1R)
GCG receptor (GCGR) = biological target: GCG receptor (GCGR)
GIP receptor (GIPR) = biological target: T1, GIP receptor (GIPR)
T1 sequence (P48546 whole entry, species assumed, looked up): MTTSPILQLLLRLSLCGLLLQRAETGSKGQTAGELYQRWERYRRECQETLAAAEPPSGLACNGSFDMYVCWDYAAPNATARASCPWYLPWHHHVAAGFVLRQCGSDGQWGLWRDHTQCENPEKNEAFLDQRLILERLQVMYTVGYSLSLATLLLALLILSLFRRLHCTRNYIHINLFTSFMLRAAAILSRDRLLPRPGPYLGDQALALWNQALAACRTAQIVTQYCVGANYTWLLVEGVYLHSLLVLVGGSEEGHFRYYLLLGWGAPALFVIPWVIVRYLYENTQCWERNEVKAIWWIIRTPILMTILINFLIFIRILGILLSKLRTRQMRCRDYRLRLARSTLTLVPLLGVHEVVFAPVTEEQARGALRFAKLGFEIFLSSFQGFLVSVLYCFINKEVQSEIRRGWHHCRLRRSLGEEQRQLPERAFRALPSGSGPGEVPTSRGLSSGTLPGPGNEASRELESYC

GLP-1 EC50 (nM), cAMP assay on HEK293 cells with GLP-1R (GLP-1 receptor (GLP-1R)) | GCG EC50 (nM), cAMP assay on HEK293 cells with GCGR (GCG receptor (GCGR)) | GIP-1 EC50 (nM), cAMP assay on CHO cells with GIPR (GIP receptor (GIPR)) | Substance
0.001 nM |  |  | Human GLP-1 (7-37) (from UniProt P01275 21-180) (ligand)
 | 0.001 nM |  | Human Glucagon (from UniProt P01275 53-81) (ligand)
0.014 nM | 0.031 nM | 0.001 nM | LY3437943 (peptide)
